Experimental findings from US20190345216A1, “SorCS PEPTIDES AND USES THEREOF” (AARHUS UNIVERSITET, priority 2015, published 2019) are described below.

“Also recorded” adds a separate entry of the source.

Experiment [1] concerns Wild type and SorCS2−/− mice. The experiment in a line: Marble burying test. The class given is in vivo, mouse. Conditions: fluoxetine 20 mg/kg injected 1 hour before, 20 min test. From the text:
The SorCS2 knockout mouse has been back-crossed for ten generations into C57/BL6J. Behavioral studies were done with the backcrossed homozygous mice compared to the same C57/BL6J substrain that was used for backcrossing (Glerup, Olsen et al., 2014). In the presented experiments, all mice lines had been backcrossed for ten generations into C57/BL6Jbom (Taconic) and littermate controls were used for experiments. All experiments were approved by the Danish Animal Experiments Inspectorate under the Ministry of Justice (Permit 2011/561-119) and carried according to institutional and national guidelines. All animals were bred and housed at the Animal Facility at Aarhus University. Animals were housed in groups of up to five mice per plastic cage (42×25×15 cm) under pathogen-free conditions with a 12-hour light/12-hour dark schedule and fed standard chow (Altromin #1324) and water ad libitum. Cages were cleaned every week and supplied with bedding and nesting material, a wooden stick, and a metal tunnel. Behavioral experiments were carried out using 12-16 weeks old male mice during their light cycle between 9:00 a.m. to 5:00 p.m. […]
Wild type and SorCS2^−/− mice were injected with either saline only or saline containing 20 mg/ml (20 mg/kg) fluoxetine (trade name Prozac™). […] They were then left for 20 min and hereafter the number of marbles that were more than 50% buried in each cage was counted.

Experiment [2] concerns SorCS2. The experiment in a line: Western blot of SorCS2 expression in hippocampus and cortex after fluoxetine. Conditions: wt mice, fluoxetine in water for 3 weeks. The class given is in vivo, mouse.
Description: 3 wild-type mice were given either normal tap water or tap water containing 0.8 mg/ml fluoxetine for 3 weeks with water-chance once a week. Hereafter, the mice were euthanized by cervical dislocation and the hippocampus and cortex was dissected out. The samples were lysed in lysis buffer containing protease and phosphatase inhibitors. The samples were then analysed by Western blotting to see if treatment with fluoxetine can increase SorCS2 levels.
The test system of experiment [3] is hippocampal neurons. The experiment in a line: BDNF induced formation of inhibitory synapses and spine density in vitro. Type of experiment: cell-based, mouse. Conditions: 1 nM BDNF; for number of glutamatergic synapses/spines: 24 hours; for number of inhibitory synapses: 72 hrs. The protocol:
For studies on BDNF induced formation of inhibitory synapses, neurons from p0 wild type (wt) and SorCS2^−/− pups were seeded at a density of 100.000 neurons per coverslip. After 7 days in vitro, the medium was changed to medium containing either 1 nM of BDNF or similar volumes of sterile D-PBS. Neurons were incubated for 72 hrs at 37° C. and 5% CO2 before being fixed for 20 min in ice cold 4% PFA. After three 5 min washes in D-PBS, the neurons were stained against gephyrin, an inhibitory marker, and co stained against Map2, a marker of the dendritic tree. Images were taken by confocal microscopy and analysed using Imaris software.
To determine spine density in vitro, hippocampal neurons were isolated at PO and grown in culture at a density of 100.000 neurons pr coverslip. After 7 days in vitro the neurons were transfected with a plasmid containing GFP using Lipofectamine LTX reagent (15338-100) using the suppliers protocol. At 13 days in vitro the medium was changed to medium containing either 1 nM or 0 nM BDNF. Hereafter the cells were left in the incubator at 37° C. for 24 hours before being fixed in 4% PFA for 20 minutes at room temperature. To determine spine density, confocal images were obtained and subsequently assessed using Imaris software.

The subject of experiment [4] is hippocampal neurons. The experiment in a line: Dendritic branching of neurons in vitro upon BDNF. Conditions: 1 nM BDNF. Type of experiment: cell-based, mouse. The method, then: (§1) To determine dendritic branching of neurons in vitro, hippocampal neurons were isolated from PO mice and grown in culture at a density of 5000 neurons per coverslip. After 24 hours the medium was changed to medium containing either 1 nM of BDNF or same volume of sterile PBS. Hereafter, the cells were left in the incubator at 37° C. for 72 hours before being fixed in 4% PFA for 20 minutes at room temperature. To determine cell morphology, the neurons were stained against β-tubulin (β-tubulin mouse mAb chemicon MAB3408). Images were taken using a confocal microscope and the branching patterns were analysed using Zen 2011 Image Processing (Carl Zeiss) as follows: The 1st, 2nd, 3rd and 4th order branching patterns the neurons were counted where 1S^t order branches were defined as neurites protruding from the cell soma and were only considered 1st order branches if the branch was longer than the diameter of the soma. 2nd order branches were defined as processes extending from the 1st order branch, and so forth.
For studies on BDNF induced morphological changes of GABAergic interneurons, neurons from p3 WT and SorCS2^−/− pups were seeded at a density of 5.000 neurons per coverslip. The WT and SorCS2^−/− neurons were seeded in 1 mL Neurobasal-A Medium containing either 1 nM BDNF or similar volumes of sterile D-PBS. The neurons were incubated for 72 hrs at 37° C. and 5% CO2 before being fixed for 20 min in ice cold 4% PFA. After three 5 min washes in D-PBS, neurons were stained, against mouse anti-β-tubulin and rabbit anti-GABA. Pictures were taken using a confocal microscope and the branching patterns were analysed using Zen 2011 Image Processing (Carl Zeiss) as follows: The 1st, 2nd, 3rd and 4th order branching patterns the neurons were counted where 1st order branches were defined as neurites protruding from the cell soma and were only considered 1st order branches if the branch was longer than the diameter of the soma. 2nd order branches were defined as processes extending from the 1st order branch, and so forth.

The subject of experiment [5] is SorCS2. As to the kind of experiment: SorCS2 phosphorylation (32P labelling, immunoprecipitation, autoradiography). Type of experiment: cell-based, mouse. Conditions: wt neurons; 1 nM BDNF 10 minutes vs unstimulated. The protocol: For studies on SorCS2 phosphorylation (FIG. 4A), wt neurons were seeded at a density of 2.5 million pr 6-well. After five days in culture, the medium was changed to phosphate-free medium+0.4 mCi/ml of ^32P labelled phosphate and left for 4 hours 37° C. and 5% CO2. Hereafter, the neurons were washed once in phosphate-free medium and medium is added containing 1 nM BDNF or similar volume of sterile PBS. This is left on for 10 minutes before removing the media and adding lysis buffer containing protease- and phosphatase-inhibitors. From the samples, immunoprecipitation was carried out using antibodies against SorCS2. The samples were then analyzed by SDS-gel and subsequent autoradiography to evaluate the phosphorylation of SorCS2.

For another experiment, the target named is T1, TrkB (Homo sapiens, UniProt Q16620).
T1 construct: expressed in transfected cells; host or cells: hSY5Y cells
The experiment in a line: TrkB phosphorylation in transfected hSY5Y cells. The class given is cell-based. The note with it: hSY5Y cells with SorCS2 and TrkB compared to only TrkB. From the text:
(§2) In FIG. 6 it is shown that SorCS2 is important for phosphorylation of the BDNF-receptor TrkB.hSY5Y cells were transfected with either SorCS2, TrkB or both (FIG. 6, panels A and B). Upon stimulation with BDNF a 2.5 fold increase in phosphorylation of TrkB was seen when SorCS2 was also present, compared to when only TrkB was present (FIG. 6, panel B). […] This indicates a critical role of SorCS2 in mediating the response to BDNF

Another experiment relates to PLCy. The experiment in a line: PLCy phosphorylation in transfected hSY5Y cells. Type of experiment: cell-based. Conditions: hSY5Y cells with SorCS2 and TrkB compared to only TrkB.
Description: as §2

For a further experiment, the system named is SorCS2−/− neurons. As to the kind of experiment: BDNF-mediated branching of SorCS2−/− neurons transfected with SorCS2 constructs. The class given is cell-based, mouse. The protocol:
To study the role of SorCS2 in BDNF-mediated branching (FIG. 4B-G), SorCS2^−/− neurons were seeded at a density of 100.000 neurons pr coverslip in media containing the desired SorCS2 mutant together with GFP. After 6 hours, the medium was changed to normal neurobasal A medium containing either 1 nM BDNF or similar volume of sterile PBS. The neurons were incubated for 72 hrs at 37° C. and 5% CO2 before being fixed for 20 min in ice cold 4% PFA, before a three times 5 min washes in D-PBSPictures were taken using a confocal microscope and the branching patterns were analysed using Zen 2011 Image Processing (Carl Zeiss) as follows: The 1st, 2nd, 3rd and 4th order branching patterns of GFPpositive neurons were counted where 1st order branches were defined as neurites protruding from the cell soma and were only considered 1st order branches if the branch was longer than the diameter of the soma. 2nd order branches were defined as processes extending from the 1st order branch, and so forth. […]

For a further experiment, the system named is wild type neurons. The experiment in a line: Morphological (neurotrophic) response of wild type neurons to SorCS2 tail peptides. The class given is cell-based, mouse. Conditions: wt neurons; 1 nM BDNF. The protocol: as §1
We next created peptides similar to the intracellular tail of SorCS2. The first peptide had similar sequence to wild type SorCS2 tail except the serines at position 1125, 1128 and 1130, which had been changed to aspartic acids. Furthermore a TAT sequence had been added to facilitate entry into the neurons (FIG. 11), denoted “Ppep”.

T1 sequence (Q16620 32-822, species assumed): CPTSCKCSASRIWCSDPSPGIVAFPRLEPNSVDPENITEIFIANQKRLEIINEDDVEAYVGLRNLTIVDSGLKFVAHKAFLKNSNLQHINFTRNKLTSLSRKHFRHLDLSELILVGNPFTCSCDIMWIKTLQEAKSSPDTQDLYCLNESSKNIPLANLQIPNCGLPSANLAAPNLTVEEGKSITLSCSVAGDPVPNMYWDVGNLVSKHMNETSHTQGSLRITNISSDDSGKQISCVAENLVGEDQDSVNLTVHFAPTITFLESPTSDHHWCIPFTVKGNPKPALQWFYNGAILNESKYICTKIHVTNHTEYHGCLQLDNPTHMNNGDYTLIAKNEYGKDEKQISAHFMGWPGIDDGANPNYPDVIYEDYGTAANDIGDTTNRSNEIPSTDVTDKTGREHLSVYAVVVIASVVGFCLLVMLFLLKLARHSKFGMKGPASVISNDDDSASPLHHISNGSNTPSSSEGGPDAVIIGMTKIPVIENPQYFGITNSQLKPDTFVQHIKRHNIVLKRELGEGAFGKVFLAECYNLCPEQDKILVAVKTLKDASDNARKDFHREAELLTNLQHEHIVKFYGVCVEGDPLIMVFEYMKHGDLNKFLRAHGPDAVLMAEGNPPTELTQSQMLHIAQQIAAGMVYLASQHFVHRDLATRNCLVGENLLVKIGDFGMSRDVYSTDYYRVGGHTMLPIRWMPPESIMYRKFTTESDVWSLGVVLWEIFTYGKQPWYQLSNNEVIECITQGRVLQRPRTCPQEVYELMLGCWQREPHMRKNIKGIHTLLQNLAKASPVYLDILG

Regarding `CNCCC(Oc1ccc(C(F)(F)F)cc1)c1ccccc1` (stereo not drawn) [fluoxetine], the “number of marbles buried” value was “this effect was not observed; also recorded: this was not the case” in experiment [1] (SorCS2−/− mice); “calmed and buried less marbles” in experiment [1] (wild type mice). Besides, the “expression of SorCS2 (Western blot)” value in the experiment with SorCS2 [2] (cortex) is “not in the cortex”; with SorCS2 [2] (hippocampus), “increase”.

B1: BDNF: brain-derived neurotrophic factor, ligand of tyrosine kinase receptor TrkB (protein, UniProt P23560 19-247, looked up)
Neurotrophic factor BDNF …: APMKEANIRGQGGLAYPGVRTHGTLESVNGPKAGSRGLTSLADTFEHVIEELLDEDQKVRPNEENNKDADLYTSRVMLSSQVPLEPPLLFLLEEYKNYLDAANMSMRVRRHSDPARRGELSVCDSISEWVTAADKKTAVDMSGGTVTVLEKVPVSKGQLKQYFYETKCNPMGYTKEGCRGIDKRHWNSQCRTTQSYVRALTMDSKKRIGWRFIRIDTSCVCTLTIKRGR
Take B1: the “number of glutamatergic synapses/spines” value with hippocampal neurons [3] (neurons lacking SorCS2) is “not the case”; in the experiment with hippocampal neurons [3] (wt neurons), “increase”. In addition, the “number of inhibitory synapses” value is reported as “not the case” in the experiment on hippocampal neurons [3] (neurons lacking SorCS2) and “increase” in the experiment with hippocampal neurons [3] (wt neurons). Moreover, the “dendritic complexity (branching)” value in the experiment on hippocampal neurons [4] (GABAergic interneurons lacking SorCS2, 72 hrs) was “non-responsive”; with hippocampal neurons [4] (glutamatergic neurons lacking SorCS2, 72 hours), “not the case”; in the experiment on hippocampal neurons [4] (wt GABAergic interneurons, 72 hrs) it was “increase in complexity”; in the experiment on hippocampal neurons [4] (wt glutamatergic neurons, 72 hours) it was “increase in complexity”. Further, the “phosphorylation of SorCS2” value in the experiment with SorCS2 [5] is recorded as “increased phosphorylation”. The “increase in phosphorylation of TrkB upon BDNF stimulation” value with TrkB is 2.5 fold. In the experiment on PLCy, the “phosphorylation of PLCy upon BDNF stimulation” value is on record as “significant increase”. The “neurite branching response to BDNF” value in the experiment on SorCS2−/− neurons (SorCS2−/− neurons transfected with S1128A variant) is reported as “lost”; in the experiment on SorCS2−/− neurons (SorCS2−/− neurons transfected with S1130A variant), “lost”; in the experiment on SorCS2−/− neurons (SorCS2−/− neurons transfected with full length SorCS2, 1 nM BDNF), “rescues the response; also recorded: able to rescue response”; with SorCS2−/− neurons (SorCS2−/− neurons transfected with full-length variant S1125A, S1128A and S1130A), “diminished”; in the experiment with SorCS2−/− neurons (SorCS2−/− neurons transfected with variant lacking the intracellular domain), “no increase in neurite branching”; in the experiment on SorCS2−/− neurons (SorCS2−/− neurons transfected with variant with deletion of 56 amino acids), “lost”. Also, the “neurite branching response to BDNF” value with SorCS2−/− neurons (SorCS2−/− neurons transfected with variant with deletion of the last 21 amino acids) and in the experiment on SorCS2−/− neurons (SorCS2−/− neurons transfected with variant with deletion of the last 35 amino acids) was “still rescued the phenotype” each time. Moreover, the “complexity of neurons compared to neurons without BDNF (FIG. 13)” value in the experiment on wild type neurons was “increased in complexity”.
